Measured values published in patent US20200392236A1 (JUNO THERAPEUTICS, published 2020).

T1: human BCMA amino acid residues 1-54 (linear and conformational CLIPS peptide libraries) (human, UniProt Q02223 1-54)
T1 sequence: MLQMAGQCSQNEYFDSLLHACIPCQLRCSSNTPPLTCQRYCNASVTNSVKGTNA

T2: human BCMA (B-cell maturation antigen) on cells (human, UniProt Q02223 1-184)
T2 construct: whole, on cells; also called hBCMA; hBCMA/HEK293 cell line
T2 sequence (looked up): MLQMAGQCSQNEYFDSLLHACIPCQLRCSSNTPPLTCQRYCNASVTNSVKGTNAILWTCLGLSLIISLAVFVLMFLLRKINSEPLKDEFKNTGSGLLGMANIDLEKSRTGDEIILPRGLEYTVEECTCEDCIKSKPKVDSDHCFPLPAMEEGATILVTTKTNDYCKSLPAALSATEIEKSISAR


Tests used:
[1] = target: T1, human BCMA amino acid residues 1-54 …; experiment: CLIPS peptide array ELISA
Protocol: Epitopes recognized, e.g., specifically bound to, by exemplary anti-BCMA scFv clones (BCMA-1, BCMA-5, BCMA-9, BCMA-23, BCMA-25, BCMA-26, BCMA-52 and BCMA-55 anti-BCMA scFvs), were assessed using full discontinuous epitope mapping by Chemical Linkage of Peptides onto Scaffolds (CLIPS; Pepscan Presto BV, Lelystad, The Netherlands; see, e.g., Timmerman et al., (2007) J. Mol. Recognit. 20: 283-329). Mapping was carried out using anti-BCMA scFv clones, such as those fused with mouse Fc (scFv-mFc).
Linear and conformational peptide libraries of amino acid residues 1-54 of human BCMA (set forth as amino acid residues 1-54 of SEQ ID NO:367) were generated based on a combinatorial matrix design. Linear peptides and structural mimetics including single loop, α-helix, β-turn, combinatorial and linear disulfide bridge mimics, and discontinuous epitope mimics were used, along with positive and negative control peptides, on an amino-functionalized solid support.
Affinities for binding to the peptides in the epitope library were determined using ELISA. The peptide arrays were incubated with a solution containing the scFv overnight at 4° C. Affinity information was used in iterative screens to define the sequence and conformation of epitopes. Heat maps of affinity information for two or more loops were generated.

[2] = target: T2, human BCMA (B-cell maturation antigen) …; experiment: flow cytometry on hBCMA-expressing HEK293 cells

Binder | binding result [1] | binding result [2]
BCMA-55-scFv-mFc (Fc fusion, scFv fused with mouse Fc; The order scFv then Fc follows the label; also called BCMA-55 anti-BCMA scFv; not shown: mouse Fc (mFc)) QSALTQPASVSASPGQSIAISCTGTSSDVGWYQQHPGKAPKLMIYEDSKRPSGVSNRFSGSKSGNTASLTISGLQAEDEADYYCSSNTRSSTLVFGGGTKLTVLGSRGGGGSGGGGSGGGGSLEMAEVQLVQSGAEMKKPGASLKLSCKASGYTFIDYYVYWMRQAPGQGLESMGWINPNSGGTNYAQKFQGRVTMTRDTSISTAYMELSRLRSDDTAMYYCARSQRDGYMDYWGQGTLVTVSS | binds | –
BCMA-26 anti-BCMA scFv (scFv, VH-(G4S)3-VL scFv) scFv: EVQLVESGGGLVKPGGSLRLSCAASGFTFSDYYMSWIRQAPGKGLEWVSYISSSGSTIYYADSVKGRFTISRDNAKNSLYLQMNSLRAEDTAVYYCAKVDGPPSFDIWGQGTMVTVSSGGGGSGGGGSGGGGSSYVLTQPPSVSVAPGQTARITCGANNIGSKSVHWYQQKPGQAPMLVVYDDDDRPSGIPERFSGSNSGNTATLTISGVEAGDEADYFCHLWDRSRDHYVFGTGTKLTVL | binds | –

Results, then the binder that gave them:

binding result [1] | binding result [2] | Binder
binds | – | BCMA-52-scFv-mFc (Fc fusion, scFv fused with mouse Fc; The order scFv then Fc follows the label; also called BCMA-52 anti-BCMA scFv; not shown: mouse Fc (mFc)) SYELTQPPSASGTPGQRVTMSCSGTSSNIGSHSVNWYQQLPGTAPKLLIYTNNQRPSGVPDRFSGSKSGTSASLAISGLQSEDEADYYCAAWDGSLNGLVFGGGTKLTVLGSRGGGGSGGGGSGGGGSLEMAEVQLVQSGAEVKKPGESLKISCKGSGYSFTSYWIGWVRQMPGKGLEWMGIIYPGDSDTRYSPSFQGHVTISADKSISTAYLQWSSLKASDTAMYYCARYSGSFDNWGQGTLVTVSS
– | no binding | BCMA-16 anti-BCMA scFv (scFv, VH-(G4S)3-VL scFv) scFv: EVQLVQSGPEVKKPGTSVKVSCKASGFTFTSSAMQWVRQARGQRLEWIGWIVVGSGNTNYAQKFQERVTITRDMSTSTAYMELSSLRSEDTAVYYCAAAPYYDILTGYYLWGQGTLVTVSSGGGGSGGGGSGGGGSQSALTQPPSASGTPGQRVTISCSGSGSNIGSNDVSWYQQIPGTAPKLLIYWNDQRPSGVPDRFSGSKSGTSASLAISGLQSEDEADYYCASWDDSLSGWVFGGGTKLTVL
